From article PMC6718413, “Improving mass spectrometry analysis of protein structures with arginine-selective chemical cross-linkers” (Nature Communications, 2019)

T1: Utp4 (UniProt Q06679 1-776)
T1 construct: Utp4, subunit of UtpA; S. cerevisiae is surmised from PDB 5WLC and the printed residue numbers; also called His6-tagged Utp4; Upt4; source: E. coli BL21(DE3), purified (HisTrap, heparin)
T1 sequence: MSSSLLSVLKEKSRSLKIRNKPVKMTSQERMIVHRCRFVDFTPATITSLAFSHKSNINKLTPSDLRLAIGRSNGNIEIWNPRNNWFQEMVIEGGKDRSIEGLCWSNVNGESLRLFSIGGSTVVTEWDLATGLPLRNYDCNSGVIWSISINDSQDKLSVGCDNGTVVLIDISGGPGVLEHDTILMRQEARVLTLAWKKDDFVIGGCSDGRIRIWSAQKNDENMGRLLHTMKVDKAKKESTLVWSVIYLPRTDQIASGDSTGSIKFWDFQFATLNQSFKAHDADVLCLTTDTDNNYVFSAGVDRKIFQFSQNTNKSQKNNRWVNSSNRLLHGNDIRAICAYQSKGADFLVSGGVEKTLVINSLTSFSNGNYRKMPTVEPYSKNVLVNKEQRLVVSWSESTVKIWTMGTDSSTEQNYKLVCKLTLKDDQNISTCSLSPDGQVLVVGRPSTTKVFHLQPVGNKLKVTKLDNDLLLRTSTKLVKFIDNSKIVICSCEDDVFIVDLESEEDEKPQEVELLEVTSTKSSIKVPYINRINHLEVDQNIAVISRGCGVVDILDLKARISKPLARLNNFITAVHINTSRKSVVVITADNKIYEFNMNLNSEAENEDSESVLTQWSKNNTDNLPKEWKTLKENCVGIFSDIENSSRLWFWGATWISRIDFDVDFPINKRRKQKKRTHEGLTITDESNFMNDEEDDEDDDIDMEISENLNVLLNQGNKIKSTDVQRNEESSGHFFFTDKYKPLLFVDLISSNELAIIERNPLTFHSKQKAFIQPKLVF

B1: Utp5–Utp15 CTD complex (complex)
chain 1: TTGTVTVILSQALQSNDHSLLETVLNNRDERVIRDTIFRLKPALAVILLERLAERIARQTHRQGPLNVWVKWCLIIHGGYLVSIPNLMSTLSSLHSTLKRRSDLLPRLLALDARLDCTINKFKTLNYEAGDIHSSEPVVEEDEDDVEYNEELDDAGLIE
chain 2: RSQRRMRAFERNINQFKWSEALDNAFVPGMAKELTLTVLQELRKRGKVRVALYGRDESTLEPLLNWCLKGIEDVRSASIVADWVAVVLELYGNTLESSPVLQELMIDLKTKVRHEIHKSKEAQRIEGMLQLLTS
notes: Utp5 residues 433-591, as m14; Utp15 residues 380-513, as m15; This complex was formed before it was mixed with His6-Utp4
B2: Utp8–Utp9 CTD complex (complex)
chain 1: DYPKTLTFLLTHPLFPLSRTRNLLSLLRDQPRLFKQAIVTCPNLPLNELLEELFSIRNRELLLDISFRILQDFTRDSIKQEMKKLSKLDVQNFIEFITSGGEDSSPECFNPSQSTQLFQLLSLVLDSIGLFSLEGALLENLTLYIDKQVEIAERNTELWNLIDTKGFQHGFASSTFDNGTSQKRALPTYTMEYLDI
chain 2: QPEVQHEKKETETKINKKVSKSDQVEIANILSSHLEANSTEILDDLMSGSWTEPEIKKFILTKINTVDHLSKIFLTISKSITQNPWNEENLLPLWLKWLLTLKSGELNSIKDKHTKKNCKHLKSALRSSEEILPVLLGIQGRLEMLRRQAKLREDLAQLSMQEGEDDEIEVIEHSNVISNPLQDQASPVEKLEPDSIVYANGESDEFVD
notes: Utp9 residues 361-569, as m17; This complex was formed before it was mixed with His6-Utp4
B3: CTD of Utp15 (residue 380-513) (domain or fragment, UniProt Q04305 380-513, looked up)
chain: RSQRRMRAFERNINQFKWSEALDNAFVPGMAKELTLTVLQELRKRGKVRVALYGRDESTLEPLLNWCLKGIEDVRSASIVADWVAVVLELYGNTLESSPVLQELMIDLKTKVRHEIHKSKEAQRIEGMLQLLTS
notes: Utp15, subunit of UtpA, residues 380-513; The tags were cleaved with Ulp1; also called Utp15 CTD
B4: C-terminal domain (CTD) of Utp5 (residue 433-591) (domain or fragment, UniProt Q04177 433-591, looked up)
chain: TTGTVTVILSQALQSNDHSLLETVLNNRDERVIRDTIFRLKPALAVILLERLAERIARQTHRQGPLNVWVKWCLIIHGGYLVSIPNLMSTLSSLHSTLKRRSDLLPRLLALDARLDCTINKFKTLNYEAGDIHSSEPVVEEDEDDVEYNEELDDAGLIE
notes: Utp5, subunit of UtpA, residues 433-591; The tags were cleaved with Ulp1; also called Utp5 CTD

Experiments:
Utp4 [1] = molecular target: T1, Utp4; experiment: co-purification; purified Utp5–Utp15 CTD complex, Utp8–Utp9 CTD complex and His6-tagged Utp4 mixed; HisTrap and gel filtration; details: both partners purified
Utp4 [2] = molecular target: T1, Utp4; experiment: cross-linking; UtpA sub-complex (0.5 μg/μL) with 0.5 mM BS^3 at RT for 45 min, quenched with 20 mM NH4HCO3; LC-MS/MS; details: both partners purified

Binder | binding result (Utp4 [1]) | binding result (Utp4 [2])
B1 | binds | –
B2 | binds | –
B3 | – | binds
B4 | – | binds
